Experimental data taken from article PMC2879331 (Clinical cancer research : an official journal of the …, 2008).

Biological target: the molecule itself
Test: non-reducing SDS-PAGE

B1: matrix metalloprotease 9 (MMP-9) (enzyme)
chain: not shown
B1 was tested, and the “stoichiometry N” value was 2.
